Laboratory results from patent US12698507B2, “Methods and compositions for conferring and/or enhancing herbicide tolerance using protoporphyrinogen IX oxidase of various cyanobacteria or variant thereof” (FarmHannong Co., Ltd., priority 2019, dated 2026).

System: PPO-deficient BT3 E. coli (ΔPPO)
Test: PPO-inhibiting herbicide tolerance test of PPO variants in E. coli (growth on herbicide-containing LB agar)
Assay type: cell-based
Conditions: CyPPO19 variants in BT3 (ΔPPO) E. coli; LB agar with 0 to 2,000 μM herbicide, 37° C., dark, 16-20 hours
Summary of the method: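 PPO-deficient BT3 E. coli expressing each variant from pET303 were diluted to OD600=0.5, then 10-fold serially, and spotted on LB-ampicillin agar with 0 to 2,000 μM herbicide. After 16-20 h at 37° C. in the dark, growth relative to wild type was scored from '−' (equivalent) to '+' per 10-fold resistance, max '+++++'.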

B1: CyPPO19 V305L + F360M: variant of CyPPO19 PPO protein (SEQ ID NO: 1) (protein)
chain: MSEVDVAIVGGGLSGLSLAWRLQQSAPQYSVVLLEASDRLGGNITTQTAEGFVWELGPNSFAPTPALLQLIAEVGLQSELIRGDRHLPRYIYWRGQLYPLQPTRPLALATSNLLSPWGKVRAALGALGFVPPYLGSGDESVNSFFRRHLGQEVAERLVAPFVSGVYAGDPQQLSAAAAFRRIAQLEKLGGGLIAGALHLRRQQAPKPKPPTSVQMRPGELGSFKEGLAALPRAIAQQLKAPIHLQTPVQEITPDPKGGYLLRSGEQTWRARSVVLATPAYQTAELVAPFQPAIARVLATIPYPTLACVVLAYPAGLGRSVRPGFGVLIPRSQGIRTLGTIWSSCLFPQRTPAGWQVFTSMIGGATDPDLASLSEEAIVQQVQQDLNRLLDLPAAKARLLGMKVWRRAIPQYMVGYPEQWQQVTHALSQTPGLFLCSNYAEGVALGDRVEHGNRTAAAVAAYLSGGQP
modifications: Synthetic_PPO of Thermosynechococcus elongatus PKUAC-SCTE542 (comprising GenBank No. CP032152.1)
tolerance level relative to wild type, Carfentrazone: + (‘+’ per each 10-fold resistance) | tolerance level relative to wild type, Flumioxazin: ++++ (‘+’ per each 10-fold resistance) | tolerance level relative to wild type, Fomesafen: +++ (‘+’ per each 10-fold resistance) | tolerance level relative to wild type, Oxyfluorfen: ++ (‘+’ per each 10-fold resistance) | tolerance level relative to wild type, Saflufenacil: ++++ (‘+’ per each 10-fold resistance) | tolerance level relative to wild type, Sulfentrazone: + (‘+’ per each 10-fold resistance) | tolerance level relative to wild type, Tiafenacil: +++ (‘+’ per each 10-fold resistance)

B2: CyPPO19 V305M + F360M: variant of CyPPO19 PPO protein (SEQ ID NO: 1) (protein)
chain: MSEVDVAIVGGGLSGLSLAWRLQQSAPQYSVVLLEASDRLGGNITTQTAEGFVWELGPNSFAPTPALLQLIAEVGLQSELIRGDRHLPRYIYWRGQLYPLQPTRPLALATSNLLSPWGKVRAALGALGFVPPYLGSGDESVNSFFRRHLGQEVAERLVAPFVSGVYAGDPQQLSAAAAFRRIAQLEKLGGGLIAGALHLRRQQAPKPKPPTSVQMRPGELGSFKEGLAALPRAIAQQLKAPIHLQTPVQEITPDPKGGYLLRSGEQTWRARSVVLATPAYQTAELVAPFQPAIARVLATIPYPTMACVVLAYPAGLGRSVRPGFGVLIPRSQGIRTLGTIWSSCLFPQRTPAGWQVFTSMIGGATDPDLASLSEEAIVQQVQQDLNRLLDLPAAKARLLGMKVWRRAIPQYMVGYPEQWQQVTHALSQTPGLFLCSNYAEGVALGDRVEHGNRTAAAVAAYLSGGQP
modifications: Synthetic_PPO of Thermosynechococcus elongatus PKUAC-SCTE542 (comprising GenBank No. CP032152.1)
tolerance level relative to wild type, Carfentrazone: + (‘+’ per each 10-fold resistance) | tolerance level relative to wild type, Flumioxazin: ++++ (‘+’ per each 10-fold resistance) | tolerance level relative to wild type, Fomesafen: +++ (‘+’ per each 10-fold resistance) | tolerance level relative to wild type, Oxyfluorfen: ++ (‘+’ per each 10-fold resistance) | tolerance level relative to wild type, Saflufenacil: ++++ (‘+’ per each 10-fold resistance) | tolerance level relative to wild type, Sulfentrazone: ++ (‘+’ per each 10-fold resistance) | tolerance level relative to wild type, Tiafenacil: ++++ (‘+’ per each 10-fold resistance)

B3: CyPPO19 V305M + F360V: variant of CyPPO19 PPO protein (SEQ ID NO: 1) (protein)
chain: MSEVDVAIVGGGLSGLSLAWRLQQSAPQYSVVLLEASDRLGGNITTQTAEGFVWELGPNSFAPTPALLQLIAEVGLQSELIRGDRHLPRYIYWRGQLYPLQPTRPLALATSNLLSPWGKVRAALGALGFVPPYLGSGDESVNSFFRRHLGQEVAERLVAPFVSGVYAGDPQQLSAAAAFRRIAQLEKLGGGLIAGALHLRRQQAPKPKPPTSVQMRPGELGSFKEGLAALPRAIAQQLKAPIHLQTPVQEITPDPKGGYLLRSGEQTWRARSVVLATPAYQTAELVAPFQPAIARVLATIPYPTMACVVLAYPAGLGRSVRPGFGVLIPRSQGIRTLGTIWSSCLFPQRTPAGWQVFTSVIGGATDPDLASLSEEAIVQQVQQDLNRLLDLPAAKARLLGMKVWRRAIPQYMVGYPEQWQQVTHALSQTPGLFLCSNYAEGVALGDRVEHGNRTAAAVAAYLSGGQP
modifications: Synthetic_PPO of Thermosynechococcus elongatus PKUAC-SCTE542 (comprising GenBank No. CP032152.1)
tolerance level relative to wild type, Carfentrazone: + (‘+’ per each 10-fold resistance) | tolerance level relative to wild type, Flumioxazin: ++++ (‘+’ per each 10-fold resistance) | tolerance level relative to wild type, Fomesafen: + (‘+’ per each 10-fold resistance) | tolerance level relative to wild type, Oxyfluorfen: ++ (‘+’ per each 10-fold resistance) | tolerance level relative to wild type, Saflufenacil: ++++ (‘+’ per each 10-fold resistance) | tolerance level relative to wild type, Sulfentrazone: + (‘+’ per each 10-fold resistance) | tolerance level relative to wild type, Tiafenacil: ++++ (‘+’ per each 10-fold resistance)

B4: CyPPO19 V305M + F360L: variant of CyPPO19 PPO protein (SEQ ID NO: 1) (protein)
chain: MSEVDVAIVGGGLSGLSLAWRLQQSAPQYSVVLLEASDRLGGNITTQTAEGFVWELGPNSFAPTPALLQLIAEVGLQSELIRGDRHLPRYIYWRGQLYPLQPTRPLALATSNLLSPWGKVRAALGALGFVPPYLGSGDESVNSFFRRHLGQEVAERLVAPFVSGVYAGDPQQLSAAAAFRRIAQLEKLGGGLIAGALHLRRQQAPKPKPPTSVQMRPGELGSFKEGLAALPRAIAQQLKAPIHLQTPVQEITPDPKGGYLLRSGEQTWRARSVVLATPAYQTAELVAPFQPAIARVLATIPYPTMACVVLAYPAGLGRSVRPGFGVLIPRSQGIRTLGTIWSSCLFPQRTPAGWQVFTSLIGGATDPDLASLSEEAIVQQVQQDLNRLLDLPAAKARLLGMKVWRRAIPQYMVGYPEQWQQVTHALSQTPGLFLCSNYAEGVALGDRVEHGNRTAAAVAAYLSGGQP
modifications: Synthetic_PPO of Thermosynechococcus elongatus PKUAC-SCTE542 (comprising GenBank No. CP032152.1)
tolerance level relative to wild type, Carfentrazone: + (‘+’ per each 10-fold resistance) | tolerance level relative to wild type, Flumioxazin: ++++ (‘+’ per each 10-fold resistance) | tolerance level relative to wild type, Fomesafen: ++ (‘+’ per each 10-fold resistance) | tolerance level relative to wild type, Oxyfluorfen: ++ (‘+’ per each 10-fold resistance) | tolerance level relative to wild type, Saflufenacil: ++++ (‘+’ per each 10-fold resistance) | tolerance level relative to wild type, Sulfentrazone: ++ (‘+’ per each 10-fold resistance) | tolerance level relative to wild type, Tiafenacil: ++++ (‘+’ per each 10-fold resistance)

B5: CyPPO19 V305M + F360T: variant of CyPPO19 PPO protein (SEQ ID NO: 1) (protein)
chain: MSEVDVAIVGGGLSGLSLAWRLQQSAPQYSVVLLEASDRLGGNITTQTAEGFVWELGPNSFAPTPALLQLIAEVGLQSELIRGDRHLPRYIYWRGQLYPLQPTRPLALATSNLLSPWGKVRAALGALGFVPPYLGSGDESVNSFFRRHLGQEVAERLVAPFVSGVYAGDPQQLSAAAAFRRIAQLEKLGGGLIAGALHLRRQQAPKPKPPTSVQMRPGELGSFKEGLAALPRAIAQQLKAPIHLQTPVQEITPDPKGGYLLRSGEQTWRARSVVLATPAYQTAELVAPFQPAIARVLATIPYPTMACVVLAYPAGLGRSVRPGFGVLIPRSQGIRTLGTIWSSCLFPQRTPAGWQVFTSTIGGATDPDLASLSEEAIVQQVQQDLNRLLDLPAAKARLLGMKVWRRAIPQYMVGYPEQWQQVTHALSQTPGLFLCSNYAEGVALGDRVEHGNRTAAAVAAYLSGGQP
modifications: Synthetic_PPO of Thermosynechococcus elongatus PKUAC-SCTE542 (comprising GenBank No. CP032152.1)
tolerance level relative to wild type, Carfentrazone: + (‘+’ per each 10-fold resistance) | tolerance level relative to wild type, Flumioxazin: ++ (‘+’ per each 10-fold resistance) | tolerance level relative to wild type, Fomesafen: ++ (‘+’ per each 10-fold resistance) | tolerance level relative to wild type, Oxyfluorfen: + (‘+’ per each 10-fold resistance) | tolerance level relative to wild type, Saflufenacil: ++ (‘+’ per each 10-fold resistance) | tolerance level relative to wild type, Sulfentrazone: + (‘+’ per each 10-fold resistance) | tolerance level relative to wild type, Tiafenacil: ++ (‘+’ per each 10-fold resistance)

B6: CyPPO19 V305L + F360L: variant of CyPPO19 PPO protein (SEQ ID NO: 1) (protein)
chain: MSEVDVAIVGGGLSGLSLAWRLQQSAPQYSVVLLEASDRLGGNITTQTAEGFVWELGPNSFAPTPALLQLIAEVGLQSELIRGDRHLPRYIYWRGQLYPLQPTRPLALATSNLLSPWGKVRAALGALGFVPPYLGSGDESVNSFFRRHLGQEVAERLVAPFVSGVYAGDPQQLSAAAAFRRIAQLEKLGGGLIAGALHLRRQQAPKPKPPTSVQMRPGELGSFKEGLAALPRAIAQQLKAPIHLQTPVQEITPDPKGGYLLRSGEQTWRARSVVLATPAYQTAELVAPFQPAIARVLATIPYPTLACVVLAYPAGLGRSVRPGFGVLIPRSQGIRTLGTIWSSCLFPQRTPAGWQVFTSLIGGATDPDLASLSEEAIVQQVQQDLNRLLDLPAAKARLLGMKVWRRAIPQYMVGYPEQWQQVTHALSQTPGLFLCSNYAEGVALGDRVEHGNRTAAAVAAYLSGGQP
modifications: Synthetic_PPO of Thermosynechococcus elongatus PKUAC-SCTE542 (comprising GenBank No. CP032152.1)
tolerance level relative to wild type, Carfentrazone: + (‘+’ per each 10-fold resistance) | tolerance level relative to wild type, Flumioxazin: ++++ (‘+’ per each 10-fold resistance) | tolerance level relative to wild type, Fomesafen: +++ (‘+’ per each 10-fold resistance) | tolerance level relative to wild type, Oxyfluorfen: ++ (‘+’ per each 10-fold resistance) | tolerance level relative to wild type, Saflufenacil: ++++ (‘+’ per each 10-fold resistance) | tolerance level relative to wild type, Sulfentrazone: ++ (‘+’ per each 10-fold resistance) | tolerance level relative to wild type, Tiafenacil: ++++ (‘+’ per each 10-fold resistance)
